From publication PMC4372080 (Nature, 2014) come the findings set out here.

For this assay, the target named is T1, TmrA-A591C (Thermus thermophilus, UniProt Q72J05 1-600, A591C).
T1 sequence (looked up): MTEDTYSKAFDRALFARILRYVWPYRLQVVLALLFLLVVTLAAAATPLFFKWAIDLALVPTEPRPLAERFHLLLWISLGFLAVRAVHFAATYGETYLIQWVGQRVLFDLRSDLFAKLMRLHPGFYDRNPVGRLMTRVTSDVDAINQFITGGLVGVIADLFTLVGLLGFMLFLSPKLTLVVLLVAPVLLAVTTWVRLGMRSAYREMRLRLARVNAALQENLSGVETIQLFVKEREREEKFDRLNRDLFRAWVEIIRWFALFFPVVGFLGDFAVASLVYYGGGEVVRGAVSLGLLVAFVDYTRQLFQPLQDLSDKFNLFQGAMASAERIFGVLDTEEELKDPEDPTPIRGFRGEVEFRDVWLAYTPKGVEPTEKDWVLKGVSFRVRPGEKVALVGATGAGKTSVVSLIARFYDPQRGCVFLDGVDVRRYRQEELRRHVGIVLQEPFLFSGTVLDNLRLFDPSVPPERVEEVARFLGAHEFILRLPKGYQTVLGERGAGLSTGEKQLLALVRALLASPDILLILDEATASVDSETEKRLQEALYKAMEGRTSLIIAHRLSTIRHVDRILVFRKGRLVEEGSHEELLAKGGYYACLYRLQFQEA
Kind of assay: cross-linking.

B1: TmrB-A567C (natural protein, Thermus thermophilus, UniProt Q72J04 1-578, looked up)
chain: MTGRSAAPLLRRLWPYVGRYRWRYLWAVLAGLVSIFFFVLTPYFLRLAVDAVQAGRGFGVYALAIVASAALSGLLSYAMRRLAVVASRQVEYDLRRDLLHHLLTLDRDFYHKHRVGDLMNRLNTDLSAVREMVGPGILMGSRLSFLVLLAFLSMYAVNARLAFYLTLILPGIFLAMRFLLRLIDRRYREAQEVFDRISTLAQEAFSGIRVVKGYALERRMVAWFQDLNRLYVEKSLALARVEGPLHALLGFLMGFAFLTVLWAGGAMVVRGELSVGELVQFNAYLAQLTWPILGLGWVMALYQRGLTSLRRLFELLDEKPAIRDEDPLPLALEDLSGEVRFEGVGLKRDGRWLLRGLTLTIPEGMTLGITGRTGSGKSLLAALVPRLLDPSEGRVYVGGHEARRIPLAVLRKAVGVAPQEPFLFSETILENIAFGLDEVDRERVEWAARLAGIHEEILAFPKGYETVLGERGITLSGGQRQRVALARALAKRPKILILDDALSAVDAETEARILQGLKTVLGKQTTLLISHRTAALRHADWIIVLDGGRIVEEGTHESLLQAGGLYCEMDRLQKEVEA
As to B1, the binding result is on record as “binds”.
